The target of this assay is Full-length Daxx linked to the Gal4 DNA binding domain (pAS2-1-Daxx) (mouse) (UniProt O35613). Kind of assay: two-hybrid.
UniProt O35613, sequence (O35613 whole entry, the tested form may be a part): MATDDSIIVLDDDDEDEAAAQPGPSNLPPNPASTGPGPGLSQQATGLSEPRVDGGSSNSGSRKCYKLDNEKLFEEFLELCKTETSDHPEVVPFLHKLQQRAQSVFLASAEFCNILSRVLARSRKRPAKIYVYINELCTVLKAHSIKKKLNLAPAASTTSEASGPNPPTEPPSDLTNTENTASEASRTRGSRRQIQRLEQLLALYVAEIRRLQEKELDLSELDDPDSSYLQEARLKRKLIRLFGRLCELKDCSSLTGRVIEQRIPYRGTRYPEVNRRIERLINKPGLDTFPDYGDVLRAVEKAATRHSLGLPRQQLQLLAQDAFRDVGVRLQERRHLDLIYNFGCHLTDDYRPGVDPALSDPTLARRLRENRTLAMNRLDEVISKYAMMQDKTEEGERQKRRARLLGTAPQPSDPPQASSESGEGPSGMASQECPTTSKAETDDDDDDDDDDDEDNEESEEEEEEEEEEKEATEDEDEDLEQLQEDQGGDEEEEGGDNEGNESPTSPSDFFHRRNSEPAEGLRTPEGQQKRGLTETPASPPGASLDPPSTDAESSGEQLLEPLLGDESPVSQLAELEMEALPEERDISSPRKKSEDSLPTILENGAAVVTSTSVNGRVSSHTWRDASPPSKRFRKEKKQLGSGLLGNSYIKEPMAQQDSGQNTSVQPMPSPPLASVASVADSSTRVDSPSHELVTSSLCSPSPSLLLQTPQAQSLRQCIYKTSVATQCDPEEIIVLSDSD

On to “Full-length PML linked to the Gal4 activation domain (pACT-2-PML) (from UniProt P29590 1-882) (natural protein)”, for which the β-galactosidase expression, fold over the single-transformed colonies was 50 fold.

Values taken from PMC2195846.
